From the Immune Epitope Database (IEDB)

How the values were obtained:
HLA-B*15:01 [1] = assay: IEDB peptide-MHC binding, purified MHC/direct/fluorescence; filed as Kd, often an IC50 or EC50 that approximates it; ≥ and ≤ were set here for values at or beyond the usual limits of such assays
HLA-A*26:01 = assay: as above
HLA-B*27:03 = assay: as above
HLA-A*02:01 = assay: as above
HLA-A*03:01 = assay: as above
HLA-B*18:01 = assay: as above
HLA-B*39:01 = assay: as above
HLA-B*46:01 [2] = assay: as above
HLA-A*02:03 = assay: as above
HLA-A*02:11 = assay: as above; conditions: source organism: Squirrelpox virus
HLA-A*68:02 = assay: as above; conditions: source organism: Squirrelpox virus
HLA-B*07:02 = assay: as above
HLA-A*24:03 = assay: as above; conditions: source organism: Squirrelpox virus
HLA-A*02:12 = assay: as above; conditions: source organism: Squirrelpox virus
HLA-A*02:16 = assay: as above; conditions: source organism: Squirrelpox virus
HLA-C*12:03 = assay: as above
HLA-B*35:01 = assay: as above
HLA-A*69:01 = assay: as above; conditions: source organism: Squirrelpox virus
HLA-A*02:19 = assay: as above; conditions: source organism: Squirrelpox virus
HLA-B*51:01 = assay: as above
HLA-B*15:02 = assay: IEDB peptide-MHC binding, purified MHC/competitive/fluorescence; filed as Kd, often an IC50 or EC50 that approximates it; ≥ and ≤ were set here for values at or beyond the usual limits of such assays; conditions: source organism: Brucella canis ATCC 23365
HLA-B*15:01 [3] = assay: IEDB peptide-MHC binding, purified MHC/competitive/fluorescence; ≥ and ≤ were set here for values at or beyond the usual limits of such assays; conditions: source organism: Sudan ebolavirus
HLA-A*01:01 = assay: as above; conditions: source organism: Sudan ebolavirus
HLA-B*46:01 [4] = assay: IEDB peptide-MHC binding, purified MHC/competitive/fluorescence; filed as Kd, often an IC50 or EC50 that approximates it; ≥ and ≤ were set here for values at or beyond the usual limits of such assays; conditions: source organism: Shigella sonnei Ss046
HLA-B*57:01 = assay: IEDB peptide-MHC binding, purified MHC/direct/fluorescence; filed as Kd, often an IC50 or EC50 that approximates it; ≥ and ≤ were set here for values at or beyond the usual limits of such assays; conditions: source organism: Escherichia coli O157:H7 str. EC4486
HLA-B*45:06 = assay: IEDB peptide-MHC binding, purified MHC/competitive/fluorescence; filed as Kd, often an IC50 or EC50 that approximates it; ≥ and ≤ were set here for values at or beyond the usual limits of such assays; conditions: source organism: Vibrio vulnificus YJ016
HLA-B*15:42 = assay: as above; conditions: source organism: Vibrio vulnificus YJ016
HLA-C*06:02 = assay: as above; conditions: source organism: Vibrio vulnificus YJ016
HLA-B*83:01 = assay: as above; conditions: source organism: Vibrio vulnificus YJ016
HLA-C*14:02 = assay: IEDB peptide-MHC binding, purified MHC/direct/fluorescence; filed as Kd, often an IC50 or EC50 that approximates it; ≥ and ≤ were set here for values at or beyond the usual limits of such assays; conditions: source organism: Vibrio vulnificus YJ016
HLA-C*15:02 = assay: as above; conditions: source organism: Vibrio vulnificus YJ016
[5] = source organism: Giardia lamblia ATCC 50803
[6] = source organism: Squirrelpox virus
[7] = source organism: Escherichia coli O157:H7 str. EC4486
[8] = source organism: Vibrio vulnificus

LTIVFVPEV
Kd (HLA-B*15:01 [1]; [5]): ≥ 20 µM
Kd (HLA-A*26:01; [5]): ≥ 20 µM
Kd (HLA-B*27:03; [5]): ≥ 20 µM
Kd (HLA-A*02:01; [5]): 0.004 µM
Kd (HLA-A*03:01; [5]): ≥ 20 µM
Kd (HLA-B*18:01; [5]): ≥ 20 µM
Kd (HLA-B*39:01; [5]): ≥ 20 µM
Kd (HLA-B*46:01 [2]; [5]): ≥ 20 µM

MACHRVLTY
Kd (HLA-B*15:01 [1]; [6]): 0.104 µM
Kd (HLA-A*26:01; [6]): ≥ 20 µM
Kd (HLA-B*27:03; [6]): ≥ 20 µM
Kd (HLA-A*02:03; [6]): ≥ 20 µM
Kd (HLA-A*02:11): ≥ 20 µM
Kd (HLA-A*02:01; [6]): ≥ 20 µM
Kd (HLA-A*68:02): ≥ 20 µM
Kd (HLA-B*07:02; [6]): ≥ 20 µM
Kd (HLA-A*24:03): ≥ 20 µM
Kd (HLA-A*02:12): ≥ 20 µM
Kd (HLA-A*02:16): ≥ 20 µM
Kd (HLA-C*12:03; [6]): 0.018 µM
Kd (HLA-B*35:01; [6]): 0.021 µM
Kd (HLA-A*69:01): ≥ 20 µM
Kd (HLA-A*02:19): ≥ 20 µM
Kd (HLA-B*18:01; [6]): ≥ 20 µM
Kd (HLA-B*39:01; [6]): ≥ 20 µM
Kd (HLA-B*46:01 [2]; [6]): ≥ 20 µM
Kd (HLA-B*51:01; [6]): ≥ 20 µM

SALGFTGVY
Kd (HLA-B*15:02): 0.385 µM

TSSYYATSY
IC50 (HLA-B*15:01 [3]): 14.3 µM
IC50 (HLA-A*01:01): 2.01 µM

YAMMSLFDM
Kd (HLA-B*46:01 [4]): 0.113 µM
Kd (HLA-B*57:01): ≥ 20 µM
Kd (HLA-A*26:01; [7]): ≥ 20 µM
Kd (HLA-B*27:03; [7]): ≥ 20 µM
Kd (HLA-A*02:03; [7]): ≥ 20 µM
Kd (HLA-B*07:02; [7]): 18.4 µM
Kd (HLA-B*35:01; [7]): 0.004 µM
Kd (HLA-A*03:01; [7]): ≥ 20 µM
Kd (HLA-B*18:01; [7]): ≥ 20 µM
Kd (HLA-B*51:01; [7]): ≥ 20 µM

YLRKHIRAL
Kd (HLA-B*45:06): ≥ 5 µM
Kd (HLA-B*15:42): ≥ 5 µM
Kd (HLA-C*06:02): 0.482 µM
Kd (HLA-B*83:01): ≥ 5 µM
Kd (HLA-B*15:01 [1]; source organism: Vibrio vulnificus CMCP6): 0.024 µM
Kd (HLA-C*14:02): 0.099 µM
Kd (HLA-B*07:02; [8]): 0.003 µM
Kd (HLA-C*12:03; source organism: Vibrio vulnificus YJ016): 0.193 µM
Kd (HLA-C*15:02): ≥ 20 µM
Kd (HLA-B*51:01; [8]): ≥ 20 µM
